One molecule from patent US11906519B2, “Methods for identifying LILRB-blocking antibodies” (THE BOARD OF REGENTS OF THE UNIVERSITY OF TEXAS SYSTEM, priority 2016, dated 2024) can be followed below.

Common to all, as to type: cell-based, human
One experiment concerns MV4-11 cells. Briefly: Transwell trans-endothelial migration of MV4-11 cells. The following applies: lilrb4-KO MV4-11, recombinant protein supplemented. Here is the method: Transwell assay. To test the cell plasticity, 1×10^5 MV4-11 cells were labelled with CFSE (Invitrogen) and treated with 100 μg/ml of anti-LILRB4 antibody C84 or control antibody mIgG and cultured in the upper chamber of well in a transwell plate (Corning). After 18 h, cells in lower chamber were counted. To test the ability of AML cells to migrate through endothelial cells, 3×10^5 human umbilical vein endothelial cells (HUVEC) cells were cultured on the transwell membrane. After 3 days, 1×10^5 CFSE-labelled MV4-11 cells were seeded in the upper chamber with 100 μg/ml of C84 or mIgG. After 18 h, cells in lower chamber were counted.

The subject of the next experiment is THP-1 cells. Briefly: Transwell trans-endothelial migration of THP-1 cells. Particulars: lilrb4-KO THP-1, recombinant protein supplemented.
In experiment [1] the test system is T cells co-cultured with THP-1 cells. In words: Tumor cell/T cell co-culture assay. The following applies: T cells with irradiated THP-1 cells, protein supplemented. The procedure: Tumor cell/T cell co-culture assay. Human T cells isolated from health donor peripheral blood (PB009-1-0, Allcells) were co-cultured with irradiated (28 Gy) THP-1 cells in a U-bottom 96 well-plate for 3-7 days. Anti-CD3/CD28-coated beads (#11161D, Thermo Fisher), 50 U/ml recombinant human IL-2, and 5 ng/ml recombinant human IL-7 were supplemented to the medium. In some experiments, THP-1 cells were cultured in the upper chamber of transwell inserts (pore size is 3 μM, #09-761-80, Thermo Fisher) for the U-bottom 96 well-plate. For primary AML or B-ALL samples, patient CD3^+ T cells were collected and patient leukemia cells were sorted as CD33^+ and CD19^+ for AML and B-ALL, respectively.
CD8^+ T cells (5×10^4 per well) isolated from hPBMCs of a healthy donor (Interstate Blood Bank) were stimulated with anti-CD3/CD28/CD137-coated beads (11163D, Thermo Fisher) or cultured without stimulation for 2 days in a 96-well plate. Then, 5×10^3 human leukemia THP-1-Luc-GFP cells and 50 to 500 μg/ml anti-LILRB4 antibody C84 or control antibody mIgG were added. Cell numbers were determined on day 7 in triplicate wells. Anti-CD8 and anti-CD28 were used to detect human CTL cells; THP-1 cells were positive for GFP. […]

B1: arginase-1: recombinant Arginase-1 protein supplemented to culture (protein, UniProt P05089 1-322, looked up)
Arginase-1: MSAKSRTIGIIGAPFSKGQPRGGVEEGPTVLRKAGLLEKLKEQECDVKDYGDLPFADIPNDSPFQIVKNPRSVGKASEQLAGKVAEVKKNGRISLVLGGDHSLAIGSISGHARVHPDLGVIWVDAHTDINTPLTTTSGNLHGQPVSFLLKELKGKIPDVPGFSWVTPCISAKDIVYIGLRDVDPGEHYILKTLGIKYFSMTEVDRLGIGKVMEETLSYLLGRKKRPIHLSFDVDGLDPSFTPATGTPVVGGLTYREGLYITEEIYKTGLLSGLDIMEVNPSLGKTPEEVTRTVNTAVAITLACFGLAREGNHKPIDYLNPPK
With B1, the “Migration ability of MV4-11 cells across endothelial cells” value in the experiment with MV4-11 cells is “increased”. Also, the “Migration ability of THP-1 cells across endothelial cells” value in the experiment on THP-1 cells is reported as “increased”. For the same molecule, in experiment [1], the “T cell proliferation in coculture” value is reported as “decreased”.
